The results in this text go back to publication PMC5452035 (2017).

What is called Kd is the concentration at which binding is half-saturated. Read a high Kd as weaker binding.

Non-standard residues stand in square brackets, D forms with d. No end group written: not given here. pT = C[C@@H](OP(=O)(O)O)[C@H](N)C(=O)O; FAM = 5,6-carboxyfluorescein

The assay has as its target T1, Rtt103p CID Q19A (Saccharomyces cerevisiae).
T1 chain: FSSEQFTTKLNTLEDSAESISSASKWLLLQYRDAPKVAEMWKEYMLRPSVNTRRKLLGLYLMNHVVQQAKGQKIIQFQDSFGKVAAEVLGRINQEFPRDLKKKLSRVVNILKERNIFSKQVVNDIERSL
Put plainly: FP.

B1: FAM-PSYSP(pT)SPSYSPTSPS (peptide)
peptide: {FAM}-PSYSP[pT]SPSYSPTSPS
As to B1, the Kd was found to be 48 µM.
